Laboratory results from the domain aggregation screens of Martell et al. (2025).

Assay: soluble fraction after stress (log2 fold change); higher = more stays soluble; pooled small domains, quantitative proteomics
Details: stress: 75 degC
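Further: 20 min heating vs room temperature control held 20 min.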

Row | Sequence | soluble fraction (log2)
1 | HMSMSKISNLLEIMMIIQYKGLTTASELAQSLGVDKKTVYRYINSLSKANIPIYTKKGRYGGFYIDKNF | -1.29
2 | HMSMSTVGERIKKKRKNLNFTQQELAAKLNISAQAVSKWENGVALPDLGLMPKLAQVLESTVDGLLGYQGA | -0.756
3 | HMSMTLSVLDDVRGLSESRRKQLFHSFGSIKKLREQSKETLMSIPYLPEKVALELYDKLHEE | -0.243
4 | HMSMVGSVNKQGRPFALLRVDNLLYQVKVGDYLGQNYGRITQIDETQIALREIVQDAAGEWIERPGVLQL | 0.294
5 | HMSNATELVYDDGRKLLISYETLVGGYHPDLGWIRTAKTYSISTDKHIRNYFNNVTNPRVVGEDILETLKI | 0.109
6 | HMSNDRSYLARLQDYYAEHRALPSYASIGALLGLRSKSSVAALVARLKLAGFVESTPDRRLAPTRRFF | -4.01
7 | HMSNEWIEISAKTVDDAINEGLIRLGTTTDKMDVEVLEKESAGFLGFIGKHDAKIRVRFKEV | -0.0738
8 | HMSNGYVTAKTTVNVRKSASESGERLGVIYQGDKLELVMNQADGWTKVKYKGQTAYVKSEFM | -1.27
9 | HMSNHYETLGVPRDASQEDIKRAYRRLARKLHPDVAGPGKAEEFKAVNEAYAVLSDEESRRMYDLGGDDAL | 0.157
10 | HMSNIQLVENLYRLRKAHHYTQQEISDLLNISRQAYSNYETSKRTPDLDSLMRLADIYGVSLDQLVNHP | -1.93
11 | HMSNLENSLNESLSLLKSNKYNEALEILKKIEIEDSRVFFLLGTIYSVMKNINLGEEFLIKASK | -1.64
12 | HMSNLGLQIVRTLTDAGKGVVFITHKLKEALTIADRINVLRRGKVVGDADPKTASESQIAEMMVGRPVQL | -0.0755
13 | HMSNMWVWSKLSGIQWMDAWEDRFHGNPNTVITRLKTNKTVRVEVYTETEQEALDIKKLFGGSIRKLV | -3.09
14 | HMSNRFIQFRQRAIDWLNSDRDFNAGILLLEESGFKPGVVAKLKRHGVNGPEAKKRLKFLINELVKAWA | -1.2
15 | HMSNVKVYPNPTSGKLTIDAENYKGVEVYDTSGRLIVKSELRTIDLEEQSKGLYLLKVNANGTTQEFKVFK | -0.0433
16 | HMSNYLKSVEVFDPITNKWSYVSAMKVRRGYVAVVATMDRLYAIGGYDGENYLSTVEMYNPDTN | 0.108
17 | HMSPAVSLITGKLGAETYYKQGLKKAKEKDYEGALDDLIKAYEFFPDKKIKTQVDKLASFLGKPPIL | -0.259
18 | HMSPIKAGDLVKITGTKYYRGQTIPSWVKAKNWFVHSVSGDRAVINKSEDGKNAIMSPVKVSNLALVT | 0.0902
19 | HMSPILTPDQATKAYGKDGVLYIHSNKERTIYIYDVTGRTVRILEAVEGENQINGLEKGIYFLEGQKVAV | -1.36
20 | HMSPLQLGNYNTLRITRFTDHGAYLDGGDVGEILMPKTYVLPEMKPGDEVRVFVYLDQEERLVGTTET | -0.622
21 | HMSPPVIQQGQDVRLIYKGTGFAVSNEGKALNTAADGQVARARTGGGQTVSGIARPGGIIEIT | 0.391
22 | HMSPQPPNQEAVRTRILDQAAHLFLTIGYAETTVRRIAGAVGIKAASLYHHFGSKDEVFESILIR | 0.274
23 | HMSPRADRSVNLDVGETVQIDDWGADGTAQIRYRGAPWTAVLRPGHTPHPGPHRVIELVGSRLLVEP | 0.0352
24 | HMSPRAIYVTTSDLNMRMQPSPNAYKRGVAPRGTELLVVEWGDDWSKVIFEGDTAYAASRYLSYVKDEP | -1.74
25 | HMSQDEVVADMKADLGPDADNIIRSNIQWADGLVRKGILTESEREELDVMGGTPEAQRILVKLRTMQG | 0.178

Row | Sequence | soluble fraction (log2)
26 | HMSQDTLIENGKVFLIHKVVAGQTLYGLSKAYNITIEDIIKYNPQAENGIKIGEDIKIFLKEE | -0.924
27 | HMSQEHTVPDYKDMEATVVYADLTQKGLNYEIAQETSPTIKEGNVTQTIPGMNEKVVSGDTITVFVSTGTG | 0.431
28 | HMSQIDLQIGHKIKSKRRKLGISQADMAKKLYISPSYLNLIESGKRKINVDLLLKLSNELGIEMSDIS | -1.97
29 | HMSQIILSARSGHAALRHRLGELGYTFADKEFDDIYERFLEVADQKKEVYDEDLESIVQERQRD | 0.00498
30 | HMSQITEADYIPNTDKTWGELMEETGESLPNLVERYNNEMTKSNGKEQPQSIIQRIIEDYQMVS | 0.253
31 | HMSQLSDEQELRDIARGIIEGNPNEAEKYRAGRTGLLGFFVGKLMAETEGKANPRLASRILKELLE | -0.144
32 | HMSQLSQIVDAFGGLRPFARALNKPPSTVQYWIEKGGIPASVVSPIMKLSEEKGLGLSRDQVSAAVS | 0.441
33 | HMSQLTVGTVVTGNASLQTQGLKLPSFASGSRPASPNIGQMIWNSSDAKAQIWNGSEWDDVG | -0.0784
34 | HMSQNVSFTVDSGQAGLRLDVFLSQADPAFSRSQIKYAIEEGDVTVNGKEPKVSQHLKDGDIVELHLE | 0.0493
35 | HMSQQEAQLNSLVKIYESMKPKDAARIFDTLDMDVLLDVVMRMKEARSAAVLAEMTPDRAKEVTLQLAD | -0.912
36 | HMSQTDQALRHLIREAWATLPQRQQQAVELAYYEGLPDTEIAARLNQPVEEVKTSIVLGMAHLREALHSY | -0.811
37 | HMSQTDTDAKDARQKILALLSDGEWHQKTELLKIDAPKEAVSNAIRYLVLEELISIDHAKVRA | -0.447
38 | HMSQTVKYVNTTSGLNMRTGPATSYAKITTIAYGQSVNVLSTSNGWSKINYSGSTGYVSSQYLQSKKPS | -2.77
39 | HMSQVHYAVLFKNASAAEATEIVTYARETLGVQDIKINANGDILVPEDKVEEMRVSMSIAGFPK | 0.23
40 | HMSQVSTKYINVSSAYVRSKPSKDGEIVTSLIKNTDVTVTGENGDWYKIKFNNYEGYIFKELLSDSKLEE | -0.442
41 | HMSRAMFEMHADWQPTDSIRGLLGRAGLPTDIAKLDQSRIGDFVNHWFGKPDRNTADSWNGLLVGWLKRTQ | -1.18
42 | HMSREEFLAGLEEALAGEVPASVIRENLNYYNSYISQEMAKGRTVDEIVDEIGEPRIVARTIIDSSEAAGE | 0.319
43 | HMSRELVILGNSMLNNALKAFHVSPASIKKKHWDKLILDYHLESKNNILIDIALGKRINVMVAHQLTSIID | 0.408
44 | HMSREVTVPPLSGLTLRDAARTLAERGLLMEAEGQGAVHRQDPPAGTRVPTGTPVRVFLTLPEQNS | 0.842
45 | HMSRGTLFVDVRGAVAKPGVYELPEKSRVFQAVEAAGGLLPEALERLVNQAAELTDGQQVYIPFEGEE | 0.405
46 | HMSRLLRTDAHLQYAAERGLPVTASAYTPVFAGAKQYTGRIESFDAQTIRFADGPAVERKAVARLEAE | 0.104
47 | HMSRLLTTRQREVFEVATREGFWDVPRRINLSELAKVLGVAKSTLSSQLQRIESAVFHAFTDEIRRQS | -2.09
48 | HMSRMLTVKQREVFDLAMREGYWETPRRITLTMLASLLSVSKSTLSVQLHKIEGTVLSSFSDEVRRRS | -1.87
49 | HMSRQDYLQTIYRLSVGKGYTTNKKIADFLSVSKPSVTEMIGKLQGEGLVAMDGAHIFLTEDGAEQ | -0.595
50 | HMSRVTVDVNPDVLQWAIDKKGKGDIKNKFPKIDEWLNGISKPTIHQLENFAKYVSVPFGYLLLSKPPVE | 0.208
